# Several values for one entry are separate records, joined by “and”; a condition that tells them apart may be missing. Equal entries are not always repeated.
# Key:
# Assay in all cases: cell-based or functional assay
# [1] = biological target: HIV Env of isolate 0013095-2.11 (HIV)
# [2] = biological target: Env of HIV isolate X1632.S2.B10 (clade G) (HIV)
# [3] = biological target: Env of HIV isolate M02138 (clade AE) (HIV)
# [4] = biological target: HIV Env of isolate DU156.12 (HIV)
# [5] = biological target: Env of HIV isolate 3468.v1.c12 (clade AD) (HIV)
# [6] = biological target: HIV Env of isolate 6785.v5.c14 (HIV)
# [7] = biological target: Env of HIV isolate NKU3006.ec1 (clade D) (HIV)
# [8] = biological target: HIV Env of isolate 6631.v3.c10 (HIV)
# [9] = biological target: Env of HIV isolate Q769.h5 (clade A) (HIV)
# [10] = biological target: HIV Env of isolate CAP45.2.00.G3 (HIV)
# [11] = biological target: HIV Env of isolate 6240_08_TA5_4622 (HIV)
# [12] = biological target: HIV Env of isolate CAP210.2.00.E8 (HIV)
# [13] = biological target: HIV Env of isolate X2088_c9 (HIV)
# [14] = biological target: HIV Env of isolate T250-4 (HIV)
# [15] = biological target: HIV Env of isolate CNE5 (HIV)
# [16] = biological target: HIV Env of isolate P0402_C2_11 (HIV)
# [17] = biological target: HIV Env of isolate TRJO4551.58 (HIV)
# [18] = biological target: HIV Env of isolate Q23.17 (HIV)
# [19] = biological target: HIV Env of the 113-member cross-clade virus panel (Table 6)
# [20] = biological target: HIV Env of isolate PVO.4 (HIV)
# [21] = biological target: HIV Env of isolate BJOX009000.02.4 (HIV)
# [22] = biological target: HIV Env of isolate BJOX028000.10.3 (HIV)
# [23] = biological target: HIV Env of isolate ZM249M.PL1 (HIV)
# [24] = biological target: HIV Env of isolate 6540.v4.c1 (HIV)
# [25] = biological target: HIV Env of isolate 1056_10_TA11_1826 (HIV)
# [26] = biological target: HIV Env of isolate RHPA4259.7 (HIV)
# [27] = biological target: HIV Env of isolate Ce1176_A3 (HIV)
# [28] = biological target: HIV Env of isolate 0260.v5.c36 (HIV)
# [29] = biological target: HIV Env of isolate ZM214M.PL15 (HIV)
# [30] = biological target: HIV Env of isolate T278-50 (HIV)
# [31] = biological target: HIV Env of isolate 928-28 (HIV)
# [32] = biological target: HIV Env of isolate HIV-16845-2.22 (HIV)
# [33] = biological target: HIV Env of isolate Ce2060_G9 (HIV)
# [34] = biological target: HIV Env of isolate REJO4541.67 (HIV)
# [35] = biological target: HIV Env of isolate CAAN5342.A2 (HIV)
# [36] = biological target: HIV Env of isolate 1012_11_TC21_3257 (HIV)
# [37] = biological target: HIV Env of isolate 246F_C1G (HIV)
# [38] = biological target: HIV Env of isolate HIV-16055-2.3 (HIV)
# [39] = biological target: HIV Env of isolate 0330.v4.c3 (HIV)
# [40] = biological target: HIV Env of isolate Du156.12 (HIV)
# [41] = biological target: HIV Env of isolate 191084_B7-19 (HIV)
# [42] = biological target: HIV Env of isolate 263-8 (HIV)
# [43] = biological target: HIV Env of isolate 6952.v1.c20 (HIV)
# [44] = biological target: HIV Env of isolate ZM135M.PL10a (HIV)
# [45] = biological target: HIV Env of isolate 6480.v4.c25 (HIV)
# [46] = biological target: HIV Env of isolate 235-47 (HIV)
# [47] = biological target: HIV Env of isolate 3103.v3.c10 (HIV)
# [48] = biological target: HIV Env of isolate 1006_11_C3_1601 (HIV)
# [49] = biological target: HIV Env of isolate 6041.v3.c23 (HIV)
# [50] = biological target: HIV Env of isolate ZM233M.PB6 (HIV)
# [51] = biological target: HIV Env of isolate HIV-001428-2.42 (HIV)
# [52] = biological target: HIV Env of isolate 3301.v1.c24 (HIV)
binder,measurement,setting,value
"ePGT121.18 (ePGT121.18.H1 VH and ePGT121.17.L1 VL) (antibody, V domains shown) VH: QMQLQESGPGLVKPGETLSLTCSVSGASISSSYWSWLRETPGKGLEWIGYTHHSGDTNYAPSLKSRVHLGLHPSKNQVSLSLTSVTAADTAVYYCARTLHGRRIYGVVAFNEYYTYFYWPTWGKGTQVTVSS VL: SDISVAPGETVRITCGGESIGSRAVQWYQHRPGQAPRLIIYNNQDRPPGIPERFSGSPDIDFGTTATLTISNVEAGDEATYYCHIWDSRRPTNWELGPGTTLTVL","IC80, pseudovirus neutralization (M1)",[1],4.21 µg/mL
same,"IC80, pseudovirus neutralization (M2)",[1],2.16 µg/mL
same,"IC50, pseudovirus neutralization",[2],> 50 µg/mL
same,"IC50, pseudovirus neutralization",[3],> 50 µg/mL
same,"IC80, pseudovirus neutralization (M1)",[4],0.003 µg/mL
same,"IC80, pseudovirus neutralization (M2)",[4],0.003 µg/mL
same,"IC50, pseudovirus neutralization",[5],0.001 µg/mL
same,"IC80, pseudovirus neutralization (M1)",[6],0.006 µg/mL
same,"IC80, pseudovirus neutralization (M2)",[6],0.006 µg/mL
same,"IC50, pseudovirus neutralization",[7],> 50 µg/mL
same,"IC80, pseudovirus neutralization (M1)",[8],0.04 µg/mL
same,"IC80, pseudovirus neutralization (M2)",[8],0.044 µg/mL
same,"IC50, pseudovirus neutralization",[9],> 50 µg/mL
"ePGT121.15.H2.L1 (antibody, V domains shown) VH: QMQLQESGPGLVKPGETLSLTCSVSGASISSSYWSWLRETPGKGLEWIGYTHHSGDTNYAPSLKSRVHLGLHPSKNQVSLSLTSVTAADTAVYYCARTLHGRRIYGVVAFNEWFTYFYWEVWGKGTQVTVSS VL: SDISVAPGETVRISCGGESIGSRAVQWYQHRAGQAPKLIIYNNQDRPPGIPERFSGSPDIDFGTTATLTITNVEAGDEATYYCHIWDSRRPTNWVFGGGTTLTVL",neutralization (Table 6 value),[10],9e-06
same,neutralization (Table 6 value),[11],0.004
same,neutralization (Table 6 value),[12],0.0207
same,neutralization (Table 6 value),[13],0.000985
same,neutralization (Table 6 value),[14],0.00084
same,neutralization (Table 6 value),[15],0.743
same,neutralization (Table 6 value),[16],0.00193
same,neutralization (Table 6 value),[17],0.00583
same,neutralization (Table 6 value),[18],0.00106
same,Breadth,[19],77%
same,GeoMean,[19],0.004
same,neutralization (Table 6 value),[20],0.00346
same,neutralization (Table 6 value),[21],0.0259
same,neutralization (Table 6 value),[22],0.00577
same,neutralization (Table 6 value),[23],0.00837
same,neutralization (Table 6 value),[24],0.652
same,neutralization (Table 6 value),[25],0.000864
same,neutralization (Table 6 value),[26],0.00156
same,neutralization (Table 6 value),[27],0.00206
same,neutralization (Table 6 value),[28],0.00199
same,neutralization (Table 6 value),[29],0.00727
same,neutralization (Table 6 value),[30],0.0127
same,neutralization (Table 6 value),[31],0.0488
same,neutralization (Table 6 value),[32],0.0222
same,neutralization (Table 6 value),[33],0.0132
same,neutralization (Table 6 value),[34],0.435
same,neutralization (Table 6 value),[35],0.00112
same,neutralization (Table 6 value),[36],0.00172
same,neutralization (Table 6 value),[37],0.0024
same,neutralization (Table 6 value),[38],0.698
same,neutralization (Table 6 value),[39],0.0053
same,neutralization (Table 6 value),[40],0.000443
same,neutralization (Table 6 value),[41],0.00196
same,neutralization (Table 6 value),[42],0.00351 and 0.00488
same,neutralization (Table 6 value),[43],0.000842
same,neutralization (Table 6 value),[44],0.122
same,neutralization (Table 6 value),[45],4.5e-05
same,neutralization (Table 6 value),[46],0.00466
same,neutralization (Table 6 value),[47],0.00436
same,neutralization (Table 6 value),[48],0.00175
same,neutralization (Table 6 value),[49],0.275
same,neutralization (Table 6 value),[50],0.0048 and 0.00672
same,neutralization (Table 6 value),[51],0.00136
same,neutralization (Table 6 value),[52],0.00106
"ePGT121.15 (ePGT121.15.H6 VH and ePGT121.15.L1 VL) (antibody, V domains shown) VH: QMQLQESGPGLVKPGETLSLTCSVSGASISSSYWSWLRETPGKGLEWIGYTHHSGDTNYAPSLKSRVHLGLHPSKNQVSLSLTSVTAADTAVYYCARTLHGRRIYGVVAFNEFFTYFYWEVWGKGTQVTVSS VL: SDISVAPGETVRISCGGESIGSRAVQWYQHRAGQAPKLIIYNNQDRPPGIPERFSGSPDIDFGTTATLTITNVEAGDEATYYCHIWDSRRPTNWVFGGGTTLTVL","IC80, pseudovirus neutralization",[1],11.9 µg/mL
same,"IC50, pseudovirus neutralization",[2],> 50 µg/mL
same,"IC50, pseudovirus neutralization",[3],> 50 µg/mL
same,"IC80, pseudovirus neutralization",[4],0.005 µg/mL
same,"IC50, pseudovirus neutralization",[5],0.002 µg/mL
same,"IC80, pseudovirus neutralization",[6],0.01 µg/mL
same,"IC50, pseudovirus neutralization",[7],> 50 µg/mL
same,"IC80, pseudovirus neutralization",[8],0.065 µg/mL
same,"IC50, pseudovirus neutralization",[9],> 50 µg/mL
"ePGT121.18.17 (ePGT121.18.H17 VH and ePGT121.17.L1 VL) (antibody, V domains shown) VH: QMQLQESGPGLVKPGETLSLTCSVSGASISSSYWSWLRETPGKGLEWIGYTHHSGDTNYAPSLKSRVTIGLDPSKNQVSLSLTSVTAADTAVYYCARTLHGRRIYGVVAFNEYYTYFYWPTWGKGTQVTVSS VL: SDISVAPGETVRITCGGESIGSRAVQWYQHRPGQAPRLIIYNNQDRPPGIPERFSGSPDIDFGTTATLTISNVEAGDEATYYCHIWDSRRPTNWELGPGTTLTVL","IC80, pseudovirus neutralization",[1],13.4 µg/mL
same,"IC50, pseudovirus neutralization",[2],> 50 µg/mL
same,"IC50, pseudovirus neutralization",[3],> 50 µg/mL
same,"IC80, pseudovirus neutralization",[4],0.006 µg/mL
same,"IC50, pseudovirus neutralization",[5],0.004 µg/mL
same,"IC80, pseudovirus neutralization",[6],0.015 µg/mL
same,"IC50, pseudovirus neutralization",[7],> 50 µg/mL
same,"IC80, pseudovirus neutralization",[8],0.269 µg/mL
same,"IC50, pseudovirus neutralization",[9],> 50 µg/mL
